Measured values published in US20220387578A1.
Residue numbers refer to the chain shown, from its start. Numbers in names are those of the source.

B1: rFluA-20 heavy chain mutant Y34A (antibody, V domains shown)
VH: QVQLQESGPGLVKPSETLSLTCSVSGVSVTSDIAYWTWIRQPPGKGLEWIGYIFYNGDTNYNPSLKSRVTMSIDTSKNEFSLRLTSVTAADTAVYFCARGTEDLGYCSSGSCPNHWGQGTLVTVSS
VL: DIQMTQSPSSLSASIGDRVTITCRPSQNIRSFLNWFQHKPGKAPKLLIYAASNLQSGVPSRFSGSGSGTEFTLTIRSLQPEDFATYYCQQSYNTPPTFGQGTKVEIK
B2: rFluA-20 heavy chain mutant E97A (antibody, V domains shown)
VH: B1 VH with A34Y, E102A
VL: B1 VL
B3: rFluA-20 heavy chain mutant Y100aA (antibody, V domains shown)
VH: B1 VH with A34Y, Y106A
VL: B1 VL
B4: rFluA-20 light chain mutant Q55A (antibody, V domains shown)
VH: B1 VH with A34Y
VL: B1 VL with Q55A
B5: rFluA-20 heavy chain mutant T96A (antibody, V domains shown)
VH: B1 VH with A34Y, T101A
VL: B1 VL

Tests used:
[1] = target: H15 HA A/shearwater/Western Australia/2576/1979, recombinant (influenza A virus)
[2] = target: H2 HA A/Singapore/1/1957, recombinant soluble trimer (influenza A virus)
[3] = target: H5 HA A/Indonesia/05/2005 (H5N1), recombinant (influenza A virus)
[4] = target: H14 HA A/mallard duck/Astrakhan/263/1982, recombinant (influenza A virus)
[5] = target: H7 HA A/Shanghai/2/2013 (H7N9), recombinant uncleaved trimer (influenza A virus)
[6] = target: H12 HA A/duck/Alberta/60/1976, recombinant (influenza A virus)
[7] = target: H9 HA A/Hong Kong/1073/99, recombinant (influenza A virus)
[8] = target: H3 HA A/Hong Kong/1/1968 (H3N2), recombinant soluble trimer (influenza A virus), Q91MA7; settings: remark: other sources report otherwise

| Binder | EC50 [1] [µg/mL] | EC50 [2] [µg/mL] | EC50 relative to wild type rFluA-20 [3] [fold] | EC50 [4] [µg/mL] | EC50 [5] [µg/mL] | EC50 [6] [µg/mL] | EC50 [7] [µg/mL] | EC50 relative to wild type rFluA-20 [1] [fold] | EC50 relative to wild type rFluA-20 [2] [fold] | EC50 relative to wild type rFluA-20 [4] [fold] | EC50 relative to wild type rFluA-20 [5] [fold] | EC50 relative to wild type rFluA-20 [6] [fold] | EC50 relative to wild type rFluA-20 [7] [fold] | EC50 [8] [µg/mL] | EC50 [3] [µg/mL] |
| --- | --- | --- | --- | --- | --- | --- | --- | --- | --- | --- | --- | --- | --- | --- | --- |
| B1 | 0.1 | 0.11 | > 100 | 0.54 | 0.44 | 0.05 | 0.21 |  |  |  |  |  |  |  |  |
| B2 | 0.12 | 0.13 | > 100 | 0.64 | 1 | 0.06 | 0.36 |  |  |  |  |  |  |  |  |
| B3 |  |  | > 100 |  |  |  |  | > 100 | > 100 | > 100 | > 100 | > 100 | > 100 |  |  |
| B4 |  |  |  |  |  |  |  |  |  |  |  |  |  | 0.08 |  |
| B5 | 0.07 | 0.07 |  | 0.23 | 0.37 | 0.04 | 0.1 |  |  |  |  |  |  |  | 0.11 |
